# Changes are numbered by the printed parent chain. In names and notes the source's numbering stands. Marks after values point to notes of the source that are not given here.
# B1: gkUBP10: urea-binding protein from Geobacillus kaustophilus with FATT domain, SEQ ID NO: 20 (protein)
# chain: MAEESDNVDSADAEEDDSDVWWGGADTDYADGSEDKVVEVAEEEEVAEVEEEEADDDEDDEDGDEVEEEAEEPYEEATERTTSIATTTTTTTESVEEVLEVLFQGPASSAVDQAKNENKKDSSSASKEGDTVKVGILHSLSGTMAISEVSLRDAELMAIEEINASGGLLGKKIEPVVEDGASDWPTFAEKAKKLLQKDQVAAIFGGWTSASRKAMLPVVEQNNGLLWYPVQYEGMESSPNIFYTGATTNQQIVPAVSWLLKNRGKTFFLLGSDYVFPRTANKIIKAQLKAEGGQVVGEEYTPLGHTDYSTIISKIKQVKPAVVFNTLNGDSNVAFFKQLKDAGITPKDVTVMSVSIAEEEIRGIGPDVLAGHLAVWNYFQTTDTPENKAFVQKYKEKYGQDRVTDDPIEAAYTAVHLWAEAVKKAGSFDVDQVKKAAAGLEYKAPEGTVKIDGETQHLWKTVRIGEIQADGQFKELWNSGQPVKPDPYLKSYPWAKGLSEGGSHHHHHHHH
# modifications: gkUBP10 (with signal peptide replaced with M, which is followed by a FATT domain, followed by a sequence fragment for C3 protease, and with a GGSHHHHHH at C-terminus)
# B2: teUBP12: urea-binding protein from Thermosynechococcus elongatus with FATT domain, SEQ ID NO: 22 (protein)
# chain: MAEESDNVDSADAEEDDSDVWWGGADTDYADGSEDKVVEVAEEEEVAEVEEEEADDDEDDEDGDEVEEEAEEPYEEATERTTSIATTTTTTTESVEEVLEVLFQGPGGDTIKVGILHSLSGTMAISEKSVVDATQLAIEQINQAGGVLGKQIQPILEDGASDWPTFAEKATKLIDQDKVVAVFGAWTSASRKAVLPVFESKNHMLWYPVQYEGQEASKNIFYTGAAPNQQIEPAVDWLLQNKGKKFFLVGSDYVFPRTANTIIKAQLAAKGGETVGEDYLPLGNTEVTPIITRIRNALPDGGVIFNTLNGDSNVAFFKQLQGAGLTPDKYPTMSVSIAEEEVQAIGVEYLKGHYAAWNYFMTVDTPENKSFVEAFKAKFGQNRVTNDPMEAAYIAVHLWKQAVEQAGTADDLEKVRQAAIGQTFNAPEGPVKMFANHHISKTVRIGEVGEDGLFKIVYSTPQPVDPLPWNQFVAETKGFAADWTRTDVDNPGKFKAAGAGGSHHHHHH
# modifications: teUBP12 (with signal peptide replaced with M, which is followed by a FATT domain, followed by a sequence fragment for C3 protease, and with a GGSHHHHHH at C-terminus, as well as C185A, C216A, and C481A mutations)
# B3: csUBP7: urea-binding protein from Caldicellulosiruptor saccharolyticus, C89A, SEQ ID NO: 18 (protein)
# chain: MSSSESEKEKSEETIKVGILHSLSGTMSISEVSLKDAELMAIEEINNNGGVLGKKLEPIVEDGASDWPTFAEKAKKLLQKDKVAVIFGAWTSASRKAVLPVVEENNGLLFYPVQYEGLESSPNIFYMGAAPNQQIVPAVKWLFDNGKKRFYLLGSDYVFPRTANKIIKAYLKYLGGVVVGEEYTPLGHTDYSSVINKIKAAKPDVVFNTLNGDSNVAFFKQLKDAGIDANTLPVMSVSIAEEEIKGIGPEYLKGHLVTWNYFQSVDTPENKEFVEKYKKKYGEDRVTDDPIEAAYIGVYLWAKAVEKAGSTDVDKVREAAKGIEFNAPEGPVKIDGDNQHLYKTVRIGEILENGQIRELWKTNKPVKPDPYLKGYEWAQGLSEQGGSHHHHHH
# modifications: csUBP7 (with signal peptide replaced with M and a GGSHHHHHH at C-terminus, and also comprising a C89A substitution)
# B4: csUBP7 N211C: csUBP7 211C cysteine mutant (SEQ ID NO: 41), tested as Acrylodan and Badan conjugates (conjugate)
# chain: B3 chain with N211C
# modifications: Acrylodan or Badan conjugate; csUBP7_211C (211C substitution mutant with signal peptide replaced with M and a GGSHHHHHH at C-terminus, and also comprising a C89A substitution)
# B5: mhUBP2: urea-binding protein from Marinobacter hydrocarbanoclasticus, SEQ ID NO: 13 (protein)
# chain: MKVGILHSLSGTMAISETALKDTMLMLIEKQNEAGGVLGRQLEPVVVDPASNWPLFAEKARELLEKEKVDVIFGNWTSVSRKSVLPVVEELNGLLFYPVQYEGEESSENVFYTGAAPNQQAIPAVDYLMNDLGVERWVLAGTDYVYPRTTNKILETYLKDKGVAAGDIMINYTPFGHSDWQTIVSDIKKFGSAGKKTAVVSTINGDANVPFYRELGNQGISATDIPVVAFSVGEQELSGIDTAPLVGHLAAWNYFMSVDNDANYDFIDAWVAYKGDDAAVTNDPMEAHYIGFNMYVEAVKKAGTTDVDEVKDAIIGVSVPNLTGGYATMMPNHHITKPVLIGEIQDNGQFSVVWETPSTVAGDAWSDFLPGSKDLISDWRAPLRAGNFNVVTGKAGGGSADVASNGGSHHHHHH
# modifications: mhUBP2 (with signal peptide replaced with M and a GGSHHHHHH at C-terminus, and also comprising C385A and C395A mutations)
# B6: psUBP11: urea-binding protein from Paenibacillus sp. with FATT domain, SEQ ID NO: 21 (protein)
# chain: MAEESDNVDSADAEEDDSDVWWGGADTDYADGSEDKVVEVAEEEEVAEVEEEEADDDEDDEDGDEVEEEAEEPYEEATERTTSIATTTTTTTESVEEVLEVLFQGPKETAPTAGAGNGSPPVEAAGDSIKVGILHSLSGTMAISEVSVKDAEMLAIEEINAAGGVLGKQIEPVIEDGASDWPTFAEKAGKLLQQDKVAAVFGGWTSASRKAMLPVFEQNHGLLFYPVQYEGLESSPNIFYTGATTNQQIVPSVSWLLENRGKKMFLLGSDYVFPRTANKIIKAQLTAEGGELAGEEYTPLGHTDFSTIIAKIKEAKPDIVYNTLNGDSNVAFFKQLKDAGTTSKDMTTLSVSVAEEEIRGIGADILEGHLAAWNYYQSTDTPENKAFVDKYKAKYGADRVTADPIEAGYTAVYLWKAAVEKAGTTDVDKVKEAAKGIEFAAPEGKVTIDGDNQHIHKTVRIGEVQADGQFKELWNSGEPVKPDPYLKTYDWAKGLSGEGGSHHHHHH
# modifications: psUBP11 (with signal peptide replaced with M, which is followed by a FATT domain, followed by a sequence fragment for C3 protease, and with a GGSHHHHHH at C-terminus)
# B7: ctUBP6: urea-binding protein from Clostridium thermocellum, SEQ ID NO: 17 (protein)
# chain: MVEEPVDNKPGTDTSAEDTIKVGILHSLSGTMAISEVSLKDAELMAIEEINQAGGLLGKKIEPVIEDGASDWPTFAEKAKKLLQNDKVATVFGCWTSASRKAVLPVFEENNGLLWYPVQYEGMESSPNIFYTGAAPNQQIVPAVEWLLENKGKRFFLLGSDYVFPRTANKIIKAQLSAIGGELIAEEYTPLGHTDYSTIVNKIKTAKPDVVFNTLNGDSNVAFFKQLKDAGITSEDITVCSVSVAEEEIRGIGAENIKGHLVSWNYYQTTDTPENKEFVEKYKSKYGSDRVTDDPIEAAYIAVHLWAEAVKKAGSFEVEKVKEAAKGLEFKAPEGLVKIEGENQHLWKPVRIGEVQEDGLIKEIWSTSEAVRPDPYLKTYDWAKGLSDGGSHHHHHH
# modifications: ctUBP6 (with signal peptide replaced with M and a GGSHHHHHH at C-terminus)
# Columns and labels:
# [1] = Thermal stability of purified UBP candidates (SYPRO Orange thermal melt, Roche LightCycler); format: physicochemical; conditions: apo-protein; SYPRO Orange monitors unfolded protein
# Experimental: The urea-binding properties of these leads were determined experimentally (Table 4). These experiments comprise four successive steps: • 1. Synthetic gene construction. […] Heterologous protein expression of the homologues in E. coli. […] Verification of urea binding.
# Analysis of urea-binding properties using thermal melts.
# [2] = Temperature- and urea-dependent fluorescence landscapes of fluorescent conjugates (Roche LightCycler); format: binding; set-up: key: y, yes; n, no; conditions: fluorescent response to urea
# How it was run: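 Acrylodan or Badan was attached to single-cysteine csUBP7 mutants and fluorescence was recorded over 0–4.8 M urea in 20 mM KCl, 20 mM MOPS (pH 7.4), with temperature stepped by 1K. Urea Kd came from ratiometric single-site fits, and Kd values across temperatures were fit to the Gibbs-Helmholtz equation.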
# [3] = Urea titration of emission intensity spectra (Nanodrop3300) with ratiometric analysis, singly labeled conjugates; format: binding; set-up: key to Acrylodan Intensity / Badan Intensity: +, increases in response to urea; −, decreases; 0, no change; key to Acrylodan Shape / Badan Shape: m, monochromatic; d, dichromatic (i.e. spectral shape changes); 0, no change
# From the text: Determination of emission intensity spectra.
# Ratiometric analysis of urea binding. […] 2
# For a single urea-binding site, the fractional saturation is given by
# [formula] where [L] is the ligand (urea) concentration and Kd the dissociation constant, ^trueKd for ytrue.
# [formula] where ^appIλ2 and ^satIλ2 are the emission intensities of the monochromatic signal at wavelength λ2 of the ligand-free and ligand-bound protein, respectively.
molecule,measurement,setting,value
B1,Thermostability ^apoTm,[1],>100 °C
B2,Thermostability ^apoTm,[1],84 °C
B3,Thermostability ^apoTm,[1],67 °C
B4,Response,[2]; Acrylodan conjugate,y
same,Response,[2]; Badan conjugate,y
same,Acrylodan Shape,"[3]; csUBP7 Acrylodan conjugate, emission spectrum shape change on urea",0
same,Acrylodan Dipoles,"[3]; csUBP7 Acrylodan conjugate, estimated change in populations of major emission bands","g (g, green (maxima >500 nm))"
same,Badan Intensity,"[3]; csUBP7 Badan conjugate, emission intensity change on urea",+
same,Badan Shape,"[3]; csUBP7 Badan conjugate, emission spectrum shape change on urea",d
same,Badan Dipoles,"[3]; csUBP7 Badan conjugate, estimated change in populations of major emission bands",g→b/g
same,Kd,"[3]; csUBP7 Badan conjugate, urea, read-out: Badan ^trueKd",15 mM
B5,Thermostability ^apoTm,[1],<25^e ° C.
B6,Thermostability ^apoTm,[1],80 °C
B7,Thermostability ^apoTm,[1],89 °C
